Assay results published in article PMC4385409.

Target: cytoplasmic dynein-1 heavy chain (bovine) (bovine)
Assay: negative stain EM

stoichiometry N: 2
Substance: cytoplasmic dynein-1 heavy chain (bovine) (natural protein)
